Measurements as given in patent US20180155451A1 (published 2018).

T1: FcγRIIa H (FcγRIIa, allotype with His at position 131), extracellular domain with C-terminal His tag (human, UniProt P12318 34-217)
T1 construct: extracellular domain; Soluble receptor expressed in FreeStyle293 cells and used as the analyte in Biacore; also called FcgRIIa H; FcγRIIa type H; not shown: His tag attached to the C terminus
T1 sequence (looked up): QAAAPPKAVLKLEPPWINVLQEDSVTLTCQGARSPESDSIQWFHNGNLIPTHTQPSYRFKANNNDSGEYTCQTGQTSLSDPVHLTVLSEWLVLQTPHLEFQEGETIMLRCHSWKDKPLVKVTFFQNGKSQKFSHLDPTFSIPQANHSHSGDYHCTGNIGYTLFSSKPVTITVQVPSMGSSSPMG

B1: GpH7-A5/GpH7-B3 variant T335_02A/GpL16-k0 (heterodimerized antibody, He Ab) (antibody, human IgG1, kappa)
heavy 1: not shown
heavy 2: not shown
light: DIVMTQSPLSLPVTPGEPASISCQASESLVHSNRNTYLHWYLQKPGQSPQLLIYKVSNRFSGVPDRFSGSGSGTDFTLKISRVEAEDVGVYYCSQNTHVPPTFGQGTKVEIERTVAAPSVFIFPPSDEQLKSGTASVVCLLNNFYPREAKVQWKVDNALQSGNSQESVTEQDSKDSTYSLSSTLTLSKADYEKHKVYACEVTHQGLSSPVTKSFNRGEC
notes: Anti-glypican-3 IgG1; the substitution stands only in the GpH7-B3 chain, the other H chain is GpH7-A5 (D356K/H435R); Position is EU numbering; also called He Ab T335A
B2: GpH7-A5/GpH7-B3 variant Y300_07I/GpL16-k0 (heterodimerized antibody, He Ab) (antibody, human IgG1, kappa)
heavy 1: not shown
heavy 2: not shown
light: B1 light
notes: Anti-glypican-3 IgG1; substitution only in the GpH7-B3 chain; Position is EU numbering; also called He Ab Y300I
B3: GpH7-A5/GpH7-B3 variant T335_09D/GpL16-k0 (heterodimerized antibody, He Ab) (antibody, human IgG1, kappa)
heavy 1: not shown
heavy 2: not shown
light: B1 light
notes: Anti-glypican-3 IgG1; substitution only in the GpH7-B3 chain; Position is EU numbering; also called He Ab T335D
B4: GpH7-A5/GpH7-B3 variant T335_04F/GpL16-k0 (heterodimerized antibody, He Ab) (antibody, human IgG1, kappa)
heavy 1: not shown
heavy 2: not shown
light: B1 light
notes: Anti-glypican-3 IgG1; substitution only in the GpH7-B3 chain; Position is EU numbering; also called He Ab T335F
B5: GpH7-A5/GpH7-B3 variant T335_06M/GpL16-k0 (heterodimerized antibody, He Ab) (antibody, human IgG1, kappa)
heavy 1: not shown
heavy 2: not shown
light: B1 light
notes: Anti-glypican-3 IgG1; substitution only in the GpH7-B3 chain; Position is EU numbering; also called He Ab T335M
B6: GpH7-A5/GpH7-B3 variant Y300_06M/GpL16-k0 (heterodimerized antibody, He Ab) (antibody, human IgG1, kappa)
heavy 1: not shown
heavy 2: not shown
light: B1 light
notes: Anti-glypican-3 IgG1; substitution only in the GpH7-B3 chain; Position is EU numbering; also called He Ab Y300M
B7: GpH7-A5/GpH7-B3 variant Y300_08L/GpL16-k0 (heterodimerized antibody, He Ab) (antibody, human IgG1, kappa)
heavy 1: not shown
heavy 2: not shown
light: B1 light
notes: Anti-glypican-3 IgG1; substitution only in the GpH7-B3 chain; Position is EU numbering; also called He Ab Y300L
B8: GpH7-A5/GpH7-B3 variant T335_05P/GpL16-k0 (heterodimerized antibody, He Ab) (antibody, human IgG1, kappa)
heavy 1: not shown
heavy 2: not shown
light: B1 light
notes: Anti-glypican-3 IgG1; substitution only in the GpH7-B3 chain; Position is EU numbering; also called He Ab T335P
B9: GpH7-A5/GpH7-B3 variant T335_08L/GpL16-k0 (heterodimerized antibody, He Ab) (antibody, human IgG1, kappa)
heavy 1: not shown
heavy 2: not shown
light: B1 light
notes: Anti-glypican-3 IgG1; substitution only in the GpH7-B3 chain; Position is EU numbering; also called He Ab T335L
B10: GpH7-B3 variant T335_02A/GpL16-k0 (homodimerized antibody, Ho Ab) (antibody, human IgG1, kappa)
heavy: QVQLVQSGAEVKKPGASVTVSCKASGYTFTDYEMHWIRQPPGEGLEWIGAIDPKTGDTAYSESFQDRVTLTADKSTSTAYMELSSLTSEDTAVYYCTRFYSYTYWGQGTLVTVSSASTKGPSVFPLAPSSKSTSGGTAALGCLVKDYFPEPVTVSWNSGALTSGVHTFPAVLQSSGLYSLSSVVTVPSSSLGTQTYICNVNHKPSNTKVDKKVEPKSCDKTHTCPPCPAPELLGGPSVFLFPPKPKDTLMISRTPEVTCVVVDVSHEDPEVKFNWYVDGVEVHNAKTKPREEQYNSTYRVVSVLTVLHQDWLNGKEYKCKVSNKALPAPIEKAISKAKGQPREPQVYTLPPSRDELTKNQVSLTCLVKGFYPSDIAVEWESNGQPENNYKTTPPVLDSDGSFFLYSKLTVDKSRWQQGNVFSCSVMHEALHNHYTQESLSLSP
light: B1 light
notes: Anti-glypican-3 IgG1 (G1d with K439E = GpH7-B3); the substitution stands in both H chains; also called Ho Ab T335A
B11: GpH7-B3 variant Y300_07I/GpL16-k0 (homodimerized antibody, Ho Ab) (antibody, human IgG1, kappa)
heavy: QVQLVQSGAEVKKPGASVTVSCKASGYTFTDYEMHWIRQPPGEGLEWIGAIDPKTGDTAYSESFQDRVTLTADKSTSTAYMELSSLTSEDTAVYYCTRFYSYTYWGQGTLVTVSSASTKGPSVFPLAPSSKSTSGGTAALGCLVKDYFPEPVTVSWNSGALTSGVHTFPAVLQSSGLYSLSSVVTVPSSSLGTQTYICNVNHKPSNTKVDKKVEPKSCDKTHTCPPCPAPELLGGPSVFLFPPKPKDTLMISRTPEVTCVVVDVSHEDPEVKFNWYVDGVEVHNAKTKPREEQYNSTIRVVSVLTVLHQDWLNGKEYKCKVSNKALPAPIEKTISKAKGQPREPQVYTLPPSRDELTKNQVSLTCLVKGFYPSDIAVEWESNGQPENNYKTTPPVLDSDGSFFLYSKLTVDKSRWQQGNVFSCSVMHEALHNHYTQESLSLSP
light: B1 light
notes: Anti-glypican-3 IgG1 (GpH7-B3 background); substitution in both H chains; Position is EU numbering; also called Ho Ab Y300I
B12: GpH7-B3 variant Y300_06M/GpL16-k0 (homodimerized antibody, Ho Ab) (antibody, human IgG1, kappa)
heavy: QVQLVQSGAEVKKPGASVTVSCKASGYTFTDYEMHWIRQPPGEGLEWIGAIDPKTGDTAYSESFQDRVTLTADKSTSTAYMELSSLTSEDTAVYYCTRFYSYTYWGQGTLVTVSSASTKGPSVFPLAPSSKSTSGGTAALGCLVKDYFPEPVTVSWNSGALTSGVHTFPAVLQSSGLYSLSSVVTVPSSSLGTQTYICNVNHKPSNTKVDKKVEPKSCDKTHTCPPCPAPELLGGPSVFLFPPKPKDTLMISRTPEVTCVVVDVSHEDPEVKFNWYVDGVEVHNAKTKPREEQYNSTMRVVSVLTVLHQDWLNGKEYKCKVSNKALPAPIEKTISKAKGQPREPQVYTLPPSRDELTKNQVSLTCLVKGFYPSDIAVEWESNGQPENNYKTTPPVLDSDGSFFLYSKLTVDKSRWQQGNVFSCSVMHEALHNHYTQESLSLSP
light: B1 light
notes: Anti-glypican-3 IgG1 (GpH7-B3 background); substitution in both H chains; Position is EU numbering; also called Ho Ab Y300M
B13: GpH7-B3 variant T335_04F/GpL16-k0 (homodimerized antibody, Ho Ab) (antibody, human IgG1, kappa)
heavy: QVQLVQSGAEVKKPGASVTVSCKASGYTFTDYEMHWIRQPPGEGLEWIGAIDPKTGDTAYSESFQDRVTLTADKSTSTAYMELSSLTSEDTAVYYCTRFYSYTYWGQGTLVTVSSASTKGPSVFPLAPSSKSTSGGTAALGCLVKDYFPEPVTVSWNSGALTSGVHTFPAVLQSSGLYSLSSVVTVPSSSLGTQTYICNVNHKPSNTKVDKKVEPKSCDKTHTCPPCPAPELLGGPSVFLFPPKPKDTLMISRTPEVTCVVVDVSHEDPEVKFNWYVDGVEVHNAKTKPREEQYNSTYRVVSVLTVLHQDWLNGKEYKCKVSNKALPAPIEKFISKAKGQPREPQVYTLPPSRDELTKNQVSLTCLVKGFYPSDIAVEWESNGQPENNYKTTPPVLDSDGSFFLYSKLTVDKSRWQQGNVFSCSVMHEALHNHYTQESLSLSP
light: B1 light
notes: Anti-glypican-3 IgG1 (GpH7-B3 background); substitution in both H chains; Position is EU numbering; also called Ho Ab T335F
B14: GpH7-B3 variant T335_06M/GpL16-k0 (homodimerized antibody, Ho Ab) (antibody, human IgG1, kappa)
heavy: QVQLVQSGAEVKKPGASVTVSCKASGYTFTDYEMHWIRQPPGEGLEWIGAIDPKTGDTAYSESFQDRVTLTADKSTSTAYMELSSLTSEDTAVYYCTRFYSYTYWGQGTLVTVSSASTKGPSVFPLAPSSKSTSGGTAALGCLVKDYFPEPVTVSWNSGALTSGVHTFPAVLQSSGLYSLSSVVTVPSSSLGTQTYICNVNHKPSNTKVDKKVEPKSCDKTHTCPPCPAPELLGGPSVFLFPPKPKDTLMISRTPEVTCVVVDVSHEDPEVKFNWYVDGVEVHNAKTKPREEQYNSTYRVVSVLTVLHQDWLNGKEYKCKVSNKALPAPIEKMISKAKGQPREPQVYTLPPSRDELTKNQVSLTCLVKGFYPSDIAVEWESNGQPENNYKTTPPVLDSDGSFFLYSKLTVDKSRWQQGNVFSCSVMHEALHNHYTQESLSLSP
light: B1 light
notes: Anti-glypican-3 IgG1 (GpH7-B3 background); substitution in both H chains; Position is EU numbering; also called Ho Ab T335M
B15: GpH7-B3 variant T335_08L/GpL16-k0 (homodimerized antibody, Ho Ab) (antibody, human IgG1, kappa)
heavy: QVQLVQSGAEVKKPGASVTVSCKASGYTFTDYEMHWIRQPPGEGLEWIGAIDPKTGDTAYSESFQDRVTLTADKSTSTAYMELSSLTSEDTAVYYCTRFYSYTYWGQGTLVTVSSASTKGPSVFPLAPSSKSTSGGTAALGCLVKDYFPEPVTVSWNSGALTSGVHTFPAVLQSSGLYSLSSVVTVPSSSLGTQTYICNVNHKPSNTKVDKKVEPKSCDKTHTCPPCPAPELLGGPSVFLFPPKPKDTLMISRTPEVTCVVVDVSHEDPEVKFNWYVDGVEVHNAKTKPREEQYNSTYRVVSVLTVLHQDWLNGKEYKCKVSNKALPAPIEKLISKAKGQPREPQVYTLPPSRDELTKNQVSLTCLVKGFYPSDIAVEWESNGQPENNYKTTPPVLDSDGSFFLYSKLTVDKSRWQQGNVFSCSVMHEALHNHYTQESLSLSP
light: B1 light
notes: Anti-glypican-3 IgG1 (GpH7-B3 background); substitution in both H chains; Position is EU numbering; also called Ho Ab T335L
B16: GpH7-B3 variant T335_09D/GpL16-k0 (homodimerized antibody, Ho Ab) (antibody, human IgG1, kappa)
heavy: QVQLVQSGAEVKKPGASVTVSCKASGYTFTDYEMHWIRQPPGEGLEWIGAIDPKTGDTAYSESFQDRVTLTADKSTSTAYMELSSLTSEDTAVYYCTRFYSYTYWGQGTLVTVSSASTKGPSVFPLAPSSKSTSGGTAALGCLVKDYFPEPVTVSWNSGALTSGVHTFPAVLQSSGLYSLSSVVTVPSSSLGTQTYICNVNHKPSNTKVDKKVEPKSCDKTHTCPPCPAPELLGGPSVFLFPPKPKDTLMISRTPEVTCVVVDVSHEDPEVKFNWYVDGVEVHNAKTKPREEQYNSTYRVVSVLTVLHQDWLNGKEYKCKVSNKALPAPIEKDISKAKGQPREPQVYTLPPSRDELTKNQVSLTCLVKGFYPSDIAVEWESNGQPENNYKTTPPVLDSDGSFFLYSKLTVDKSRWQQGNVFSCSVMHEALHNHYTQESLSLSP
light: B1 light
notes: Anti-glypican-3 IgG1 (GpH7-B3 background); substitution in both H chains; Position is EU numbering; also called Ho Ab T335D
B17: GpH7-B3 variant Y300_08L/GpL16-k0 (homodimerized antibody, Ho Ab) (antibody, human IgG1, kappa)
heavy: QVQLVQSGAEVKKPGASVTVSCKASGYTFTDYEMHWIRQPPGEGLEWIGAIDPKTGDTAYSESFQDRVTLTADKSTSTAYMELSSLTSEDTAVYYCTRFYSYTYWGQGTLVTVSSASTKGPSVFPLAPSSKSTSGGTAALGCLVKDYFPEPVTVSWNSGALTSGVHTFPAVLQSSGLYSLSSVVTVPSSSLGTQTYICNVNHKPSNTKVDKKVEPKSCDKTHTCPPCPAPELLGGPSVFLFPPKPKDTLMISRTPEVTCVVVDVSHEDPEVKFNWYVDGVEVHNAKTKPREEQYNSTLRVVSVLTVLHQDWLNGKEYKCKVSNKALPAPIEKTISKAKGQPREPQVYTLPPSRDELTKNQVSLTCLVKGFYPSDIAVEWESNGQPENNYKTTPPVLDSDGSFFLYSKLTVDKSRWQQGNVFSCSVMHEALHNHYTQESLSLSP
light: B1 light
notes: Anti-glypican-3 IgG1 (GpH7-B3 background); substitution in both H chains; Position is EU numbering; also called Ho Ab Y300L
B18: GpH7-B3 variant T335_05P/GpL16-k0 (homodimerized antibody, Ho Ab) (antibody, human IgG1, kappa)
heavy: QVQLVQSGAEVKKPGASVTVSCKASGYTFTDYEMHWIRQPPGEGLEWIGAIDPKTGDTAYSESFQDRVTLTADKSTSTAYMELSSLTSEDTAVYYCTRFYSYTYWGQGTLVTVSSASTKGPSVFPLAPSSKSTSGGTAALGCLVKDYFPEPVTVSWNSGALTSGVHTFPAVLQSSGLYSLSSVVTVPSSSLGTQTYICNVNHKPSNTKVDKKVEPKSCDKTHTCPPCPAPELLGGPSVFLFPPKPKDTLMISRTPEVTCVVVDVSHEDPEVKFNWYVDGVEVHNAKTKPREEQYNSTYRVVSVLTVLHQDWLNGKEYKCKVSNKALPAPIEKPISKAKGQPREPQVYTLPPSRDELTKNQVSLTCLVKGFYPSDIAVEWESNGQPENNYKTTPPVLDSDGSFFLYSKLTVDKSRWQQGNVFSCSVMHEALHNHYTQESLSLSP
light: B1 light
notes: Anti-glypican-3 IgG1 (GpH7-B3 background); substitution in both H chains; Position is EU numbering; also called Ho Ab T335P

target: T1, FcγRIIa H (FcγRIIa, allotype with His …); assay: SPR (Biacore T100), antibody captured on antigen-peptide chip, FcγRIIa H as analyte; response per captured antibody relative to GpH7-A5/GpH7-B3/GpL16-k0
Description: (§1) Analysis of interaction between objective antibody and the FcγR was carried out using Biacore T100 (GE Healthcare). HBS-EP+ (GE Healthcare) was used as the running buffer, and the measurement temperature was set to 25° C. Chips produced by immobilizing the antigen peptide by the amine coupling method to a Series S Sencor Chip CM5 (GE Healthcare), or alternatively, chips produced by allowing preliminarily biotinylated antigen peptides to interact with and immobilize onto a Series S Sensor Chip SA (certified) (GE Healthcare) were used. Antibodies of interest were captured onto an antigen peptide-immobilized chip, and allowed to interact to each FcγR diluted with running buffer. To regenerate and repeatedly use the chip, the antibodies captured on the chip were washed off by reacting 10 mM glycine-HCl, pH 1.5.

Binder	He/Con_2aH
B1	101 relative binding activity (control heterodimerized antibody GpH7-A5/GpH7-B3/GpL16-k0 = 100)
B2	108 relative binding activity (control heterodimerized antibody GpH7-A5/GpH7-B3/GpL16-k0 = 100)
B3	107 relative binding activity (control heterodimerized antibody GpH7-A5/GpH7-B3/GpL16-k0 = 100)
B4	103 relative binding activity (control heterodimerized antibody GpH7-A5/GpH7-B3/GpL16-k0 = 100)
B5	103 relative binding activity (control heterodimerized antibody GpH7-A5/GpH7-B3/GpL16-k0 = 100)
B6	105 relative binding activity (control heterodimerized antibody GpH7-A5/GpH7-B3/GpL16-k0 = 100)
B7	108 relative binding activity (control heterodimerized antibody GpH7-A5/GpH7-B3/GpL16-k0 = 100)
B8	108 relative binding activity (control heterodimerized antibody GpH7-A5/GpH7-B3/GpL16-k0 = 100)
B9	106 relative binding activity (control heterodimerized antibody GpH7-A5/GpH7-B3/GpL16-k0 = 100)

target: T1, FcγRIIa H (FcγRIIa, allotype with His …); assay: SPR (Biacore T100), antibody captured on antigen-peptide chip, FcγRIIa H as analyte; response per captured antibody relative to GpH7-B3/GpL16-k0
Description: as §1

Binder	Ho/Con_2aH
B10	103 relative binding activity (control homodimerized antibody GpH7-B3/GpL16-k0 = 100)
B11	122 relative binding activity (control homodimerized antibody GpH7-B3/GpL16-k0 = 100)
B12	106 relative binding activity (control homodimerized antibody GpH7-B3/GpL16-k0 = 100)
B13	104 relative binding activity (control homodimerized antibody GpH7-B3/GpL16-k0 = 100)
B14	106 relative binding activity (control homodimerized antibody GpH7-B3/GpL16-k0 = 100)
B15	106 relative binding activity (control homodimerized antibody GpH7-B3/GpL16-k0 = 100)
B16	110 relative binding activity (control homodimerized antibody GpH7-B3/GpL16-k0 = 100)
B17	115 relative binding activity (control homodimerized antibody GpH7-B3/GpL16-k0 = 100)
B18	115 relative binding activity (control homodimerized antibody GpH7-B3/GpL16-k0 = 100)
